Molecular target: T1, GST-tagged 14-3-3γ (UniProt P61981 1-247)
T1 construct: 14-3-3γ, in the bacterial expression vector pGEX-4T3; Held on glutathione sepharose 4B as bait; also called GST-14-3-3γ; GST-14-3-3
T1 sequence (looked up): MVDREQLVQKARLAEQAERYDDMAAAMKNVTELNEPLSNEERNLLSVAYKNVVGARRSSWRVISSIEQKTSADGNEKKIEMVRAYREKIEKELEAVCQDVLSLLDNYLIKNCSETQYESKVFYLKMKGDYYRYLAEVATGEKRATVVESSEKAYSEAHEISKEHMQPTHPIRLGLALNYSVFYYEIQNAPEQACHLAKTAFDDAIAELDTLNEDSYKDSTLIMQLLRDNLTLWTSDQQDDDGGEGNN
Test: pull-down; glutathione sepharose 4B saturated with purified GST-14-3-3γ, incubated with lysates of transfected HEK293T cells; cells without or with 10 µM forskolin (time course or 15 min), RGS18 alone or co-expressed with myc-spinophilin and/or VSV-PP1 catalytic subunit; precipitates blotted with anti-RGS18 or anti-FLAG
Details: one partner purified

B1: FLAG-tagged RGS18 (wild type) (natural protein, human, UniProt Q9NS28 1-235, looked up)
chain: METTLLFFSQINMCESKEKTFFKLIHGSGKEETSKEAKIRAKEKRNRLSLLVQKPEFHEDTRSSRSGHLAKETRVSPEEAVKWGESFDKLLSHRDGLEAFTRFLKTEFSEENIEFWIACEDFKKSKGPQQIHLKAKAIYEKFIQTDAPKEVNLDFHTKEVITNSITQPTLHSFDAAQSRVYQLMEQDSYTRFLKSDIYLDLMEGRPQRPTNLRRRSRSFTCNEFQDVQSDVAIWL
modifications: phosphoserine at S218 present in the basal state; phosphoserine at S49 (s3 band); phosphoserine at S216 after forskolin
notes: Regulator of G-protein signaling 18 (RGS18), 235 amino acids, in pcDNA4/TO; also called wt RGS18; wt-RGS18; source: HEK293T, transfected, in lysate
With B1 the “fold reduction of binding by forskolin against non-treated cells (cells expressing RGS18, spinophilin and PP1)” value was 21 fold, the “fold reduction of binding by forskolin against non-treated cells (cells expressing RGS18 alone)” value was 2.6 fold and the “fold reduction of binding by forskolin against non-treated cells (cells expressing RGS18 and PP1)” value was 25 fold. For the same binder, the “fold reduction of binding by forskolin against non-treated cells (cells expressing RGS18 and spinophilin)” value was 3.7 fold.

Source: PMC3820651, “Cyclic Nucleotide Dependent Dephosphorylation of Regulator of G-Protein Signaling 18 in Human Platelets” (PLoS ONE, 2013)
